The data set is described as follows: Corneal penetration of radioactive topical ocular indolicidin formulation. The class given is in vivo, New Zealand White Rabbits. How it is done:
The objective of this study was to determine the corneal penetration potential of a ^3H-labelled indolicidin molecule. The ^3H labeled L-indolicidin; L-IND was tested for corneal penetration using New Zealand White Rabbits (Western Oregon Rabbit Co.). The rabbit is one of the model species for the assessment of toxicity and is one of the species recommended for that purpose by toxicity testing guidelines of all regulatory agencies. See “Animal Models in the Evaluation of Chemotherapy of Ocular Infections” in Experimental Models in Antimicrobial Chemotherapy, Vol 1, p 187-211.
Administration of ^3H-L-IND was by epicomeal application into both eyes, 20 μL L-IND once hourly for six applications. The animals were euthanized immediately prior to harvesting of aqueous humor.
Male animals were initiated as young adults and weighed 2-3 kg. Two animals were assigned to the test (2/group; one treatment group). […]
Clinical signs were evaluated immediately after 1st dose administration and immediately prior to euthanasia and necroscopy. […]
Evaluations were confined to the eye. […] An estimate of the total volume of aqueous humor harvested was recorded and analyzed for ^3H content. […]
The two samples of aqueous humor from each of the rabbits were analyzed for their radioactivity levels. […]

Where no end group is shown, it is not given here.

The values that follow come from US6482799B1, “Self-preserving multipurpose ophthalmic solutions incorporating a polypeptide antimicrobial” (The Regents of the University of California, priority 1999, dated 2002).

As to “^3H-Indolicidin: ^3H-labelled indolicidin molecule for the corneal penetration study (ILPWKWPWWPWRR-NH2; also: tritium label; UniProt P33046 131-143, looked up)”, the “radioactivity level in aqueous humor” value (20 μL epicorneal, once hourly for six applications, both eyes) is listed as “equal to that of background counts”. For the same substance, the corneal penetration result (topical ocular, six applications) is listed as “did not penetrate the cornea”.
